PMC3413157
Like-named read-outs stand apart in the source and are kept apart here.

What was measured:
Experiment in all cases: EMSA
[1] = biological target: T1, Dna2 (hDna2) (human, UniProt P51530 1-1060)
T1 sequence: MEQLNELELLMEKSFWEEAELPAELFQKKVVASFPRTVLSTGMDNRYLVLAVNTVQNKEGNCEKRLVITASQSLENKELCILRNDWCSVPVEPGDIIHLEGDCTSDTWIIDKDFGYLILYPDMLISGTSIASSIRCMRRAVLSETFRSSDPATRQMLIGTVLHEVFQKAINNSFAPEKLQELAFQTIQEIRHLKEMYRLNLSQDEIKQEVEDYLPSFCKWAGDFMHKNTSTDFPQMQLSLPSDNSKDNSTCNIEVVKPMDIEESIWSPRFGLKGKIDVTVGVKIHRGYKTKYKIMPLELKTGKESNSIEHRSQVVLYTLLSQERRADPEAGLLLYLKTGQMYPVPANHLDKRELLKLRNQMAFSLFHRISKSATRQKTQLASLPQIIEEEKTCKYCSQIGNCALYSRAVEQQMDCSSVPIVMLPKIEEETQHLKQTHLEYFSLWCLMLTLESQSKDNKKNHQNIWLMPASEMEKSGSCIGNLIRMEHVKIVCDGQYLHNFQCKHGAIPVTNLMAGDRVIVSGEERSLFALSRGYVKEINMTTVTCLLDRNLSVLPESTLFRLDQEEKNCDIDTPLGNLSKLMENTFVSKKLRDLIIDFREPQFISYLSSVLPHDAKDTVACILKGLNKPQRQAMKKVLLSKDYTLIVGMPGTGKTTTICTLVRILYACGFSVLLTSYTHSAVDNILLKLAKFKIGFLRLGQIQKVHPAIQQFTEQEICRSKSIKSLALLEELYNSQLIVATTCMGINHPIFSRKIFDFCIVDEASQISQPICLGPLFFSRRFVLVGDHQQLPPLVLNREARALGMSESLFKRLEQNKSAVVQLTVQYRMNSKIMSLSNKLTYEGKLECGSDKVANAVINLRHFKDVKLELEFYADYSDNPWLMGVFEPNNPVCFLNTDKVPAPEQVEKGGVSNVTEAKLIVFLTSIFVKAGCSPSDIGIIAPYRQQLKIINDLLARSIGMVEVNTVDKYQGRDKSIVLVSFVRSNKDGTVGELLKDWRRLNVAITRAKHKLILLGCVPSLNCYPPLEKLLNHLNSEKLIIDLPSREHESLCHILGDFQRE

[2] = biological target: T2, FEN1 (hFEN1) (human, UniProt P39748 1-380)
T2 sequence (P39748 whole entry): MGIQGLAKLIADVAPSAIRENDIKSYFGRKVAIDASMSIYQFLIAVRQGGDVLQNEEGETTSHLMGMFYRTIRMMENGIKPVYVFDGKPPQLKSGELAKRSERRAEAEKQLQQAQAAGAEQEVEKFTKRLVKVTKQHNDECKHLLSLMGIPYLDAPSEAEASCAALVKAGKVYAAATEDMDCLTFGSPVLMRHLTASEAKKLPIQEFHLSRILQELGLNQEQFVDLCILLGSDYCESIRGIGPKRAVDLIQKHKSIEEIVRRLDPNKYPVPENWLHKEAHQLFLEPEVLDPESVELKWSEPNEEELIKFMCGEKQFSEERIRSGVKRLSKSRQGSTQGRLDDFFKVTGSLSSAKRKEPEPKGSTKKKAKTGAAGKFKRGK

[3] = biological target: T1, Dna2 (hDna2); remark: listed apart in the source
[4] = biological target: T2, FEN1 (hFEN1); remark: listed apart in the source
[5] = biological target: Dna2 (hDna2);FEN1 (hFEN1) (human;human, UniProt P51530;P39748 1-1060;1-380, |)
Sequence of Dna2 (hDna2);FEN1 (hFEN1) (P39748 whole entry, one chain of several): as the sequence (P39748 whole entry) above

[6] = biological target: T1, Dna2 (hDna2); remark: listed apart in the source
[7] = biological target: T2, FEN1 (hFEN1); remark: listed apart in the source
[8] = biological target: T1, Dna2 (hDna2); remark: listed apart in the source
[9] = biological target: T1, Dna2 (hDna2); remark: listed apart in the source
[10] = biological target: T1, Dna2 (hDna2); remark: listed apart in the source

B1: 2 nt double flap (U1:T1:D1.2) (mixed)
DNA 1: GTCGTTTTACAACGACGTGACTGGG
DNA 2: GCCCAGTCACGTCGTTGTAAAACGGGTCGTGACTGGGAAAACCCTGGCG
DNA 3: CGCCAGGGTTTTCCCAGTCACGACCA
binding result [1]: no binding

B2: 20 nt double flap (U1:T1:D1.20) (mixed)
DNA 1: TTAGTTAATTCACTGGCCGTCGTTTTACAACGACGTGACTGGG
DNA 2: B1 DNA 2
DNA 3: CGCCAGGGTTTTCCCAGTCACGACCA
binding result [2]: binds

B3: 5 nt double flap (U1:T1:D1.5) (mixed)
DNA 1: GCCGTCGTTTTACAACGACGTGACTGGG
DNA 2: B1 DNA 2
DNA 3: CGCCAGGGTTTTCCCAGTCACGACCA
binding result [2]: binds
binding result [1]: no binding

B4: 10 nt double flap (U1:T1:D1.10) (mixed)
DNA 1: CACTGGCCGTCGTTTTACAACGACGTGACTGGG
DNA 2: B1 DNA 2
DNA 3: CGCCAGGGTTTTCCCAGTCACGACCA
binding result [2]: binds

B5: 30 nt double flap (U1:T1:D1.30) (mixed)
DNA 1: TTCACGCCTGTTAGTTAATTCACTGGCCGTCGTTTTACAACGACGTGACTGGG
DNA 2: B1 DNA 2
DNA 3: CGCCAGGGTTTTCCCAGTCACGACCA
binding result [2]: binds
binding result [3]: binds

B6: 15 nt double flap (U1:T1:D1.15) (mixed)
DNA 1: TAATTCACTGGCCGTCGTTTTACAACGACGTGACTGGG
DNA 2: B1 DNA 2
DNA 3: CGCCAGGGTTTTCCCAGTCACGACCA
binding result [2]: binds

B7: 15 nt 5'-tail (T4:D2.15) (mixed)
DNA 1: ATACGCGCTATAACCCCCGTCCACCCGACGCCACCTCCTGC
DNA 2: GCAGGAGGTGGCGTCGGGTGGACGGG
binding result [4]: no binding

B8: 30 nt double flap (U2:T3:D2.30) (mixed)
DNA 1: TTCTACTTCCAATTGATACGCGCTATAACCCCCGTCCACCCGACGCCACCTCCTGC
DNA 2: GCAGGAGGTGGCGTCGGGTGGACGGGATTGAAATTTAGGCTGGCACGGTCG
DNA 3: CGACCGTGCCAGCCTAAATTTCAATT
binding result [5]: binds
binding result [6]: binds
binding result [7]: binds

B9: 30 nt 5'-tail (T4:D2.30) (mixed)
DNA 1: B8 DNA 1
DNA 2: GCAGGAGGTGGCGTCGGGTGGACGGG
binding result [8]: binds
binding result [4]: no binding

B10: 30 nt flap, 5 nt gap (U3:T3:D2.30) (mixed)
DNA 1: B8 DNA 1
DNA 2: B8 DNA 2
DNA 3: CGACCGTGCCAGCCTAAATT
binding result [9]: binds

B11: 30 nt flap, 2 nt gap (U4:T3:D2.30) (mixed)
DNA 1: B8 DNA 1
DNA 2: B8 DNA 2
DNA 3: CGACCGTGCCAGCCTAAATTTCA
binding result [10]: binds
